B1: Mothers against decapentaplegic homolog 4 (Homo sapiens), Q13485 (parent)
chain: MDNMSITNTPTSNDACLSIVHSLMCHRQGGESETFAKRAIESLVKKLKEKKDELDSLITAITTNGAHPSKCVTIQRTLDGRLQVAGRKGFPHVIYARLWRWPDLHKNELKHVKYCQYAFDLKCDSVCVNPYHYERVVSPGIDLSGLTLQSNAPSSMMVKDEYVHDFEGQPSLSTEGHSIQTIQHPPSNRASTETYSTPALLAPSESNATSTANFPNIPVASTSQPASILGGSHSEGLLQIASGPQPGQQQNGFTGQPATYHHNSTTTWTGSRTAPYTPNLPHHQNGHLQHHPPMPPHPGHYWPVHNELAFQPPISNHPAPEYWCSIAYFEMDVQVGETFKVPSSCPIVTVDGYVDPSGGDRFCLGQLSNVHRTEAIERARLHIGKGVQLECKGEGDVWVRCLSDHAVFVQSYYLDREAGRAPGDAVHKIYPSAYIKVFDLRQCHRQMQQQAATAQAAAAAQAAAVAGNIPGPGSVGGIAPAISLSAAAGIGVDDLRRLCILRMSFVKGWGPDYPRQSIKETPCWIEIHLHRALQLLDEVLHTMPIADPQPLD

Variants of: B1
Conditions: with maga6_human MAGEA6, P43360

Variant | effect of a mutation on the interaction
R361H | with no effect

Variants of: B1
Conditions: with mp2k7_human MAP2K7, O14733
Sequence of mp2k7_human MAP2K7, O14733 (O14733 whole entry): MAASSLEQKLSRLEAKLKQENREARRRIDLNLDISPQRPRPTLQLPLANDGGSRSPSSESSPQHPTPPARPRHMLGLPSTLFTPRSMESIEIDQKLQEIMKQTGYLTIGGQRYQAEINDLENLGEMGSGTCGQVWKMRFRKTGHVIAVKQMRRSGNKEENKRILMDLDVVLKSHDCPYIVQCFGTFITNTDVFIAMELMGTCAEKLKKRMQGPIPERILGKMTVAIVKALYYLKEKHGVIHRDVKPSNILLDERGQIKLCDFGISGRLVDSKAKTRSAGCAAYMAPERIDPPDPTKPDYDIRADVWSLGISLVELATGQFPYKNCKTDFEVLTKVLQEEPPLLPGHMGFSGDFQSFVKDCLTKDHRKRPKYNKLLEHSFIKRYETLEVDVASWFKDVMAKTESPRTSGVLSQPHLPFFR

Variant | effect of a mutation on the interaction
R361H | with no effect

Variants of: B1
Conditions: with m3k1_human MAP3K1, Q13233

Variant | effect of a mutation on the interaction
R361H | with no effect

Variants of: B1
Conditions: with mk10_human MAPK10, P53779

Variant | effect of a mutation on the interaction
R361H | with no effect

Variants of: B1
Conditions: with mk14_human MAPK14, Q16539

Variant | effect of a mutation on the interaction
R361H | with no effect

Variants of: B1
Conditions: with mk03_human MAPK3, P27361

Variant | effect of a mutation on the interaction
R361H | with no effect

Variants of: B1
Conditions: with mk04_human MAPK4, P31152

Variant | effect of a mutation on the interaction
R361H | with no effect

Variants of: B1
Conditions: with mk06_human MAPK6, Q16659
Sequence of mk06_human MAPK6, Q16659 (Q16659 whole entry): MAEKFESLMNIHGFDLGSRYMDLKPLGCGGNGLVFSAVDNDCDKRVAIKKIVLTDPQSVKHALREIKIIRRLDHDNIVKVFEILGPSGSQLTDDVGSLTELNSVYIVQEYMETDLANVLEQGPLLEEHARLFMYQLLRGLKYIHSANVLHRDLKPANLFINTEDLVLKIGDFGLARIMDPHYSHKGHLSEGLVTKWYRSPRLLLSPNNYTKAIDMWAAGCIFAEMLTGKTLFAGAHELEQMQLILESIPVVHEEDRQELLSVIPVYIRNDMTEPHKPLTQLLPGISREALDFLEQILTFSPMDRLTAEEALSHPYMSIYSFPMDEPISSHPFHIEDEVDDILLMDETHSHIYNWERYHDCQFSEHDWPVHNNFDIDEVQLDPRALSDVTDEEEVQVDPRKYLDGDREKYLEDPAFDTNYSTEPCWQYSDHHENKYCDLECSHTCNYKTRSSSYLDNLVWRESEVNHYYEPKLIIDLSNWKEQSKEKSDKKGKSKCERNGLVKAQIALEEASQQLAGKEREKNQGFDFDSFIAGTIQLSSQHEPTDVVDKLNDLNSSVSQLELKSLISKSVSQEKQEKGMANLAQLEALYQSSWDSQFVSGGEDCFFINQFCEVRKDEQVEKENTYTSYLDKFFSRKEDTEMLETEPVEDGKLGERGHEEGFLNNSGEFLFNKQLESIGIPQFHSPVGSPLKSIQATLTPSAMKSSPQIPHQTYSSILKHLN

Variant | effect of a mutation on the interaction
R361H | with no effect

Variants of: B1
Conditions: with mk07_human MAPK7, Q13164
Sequence of mk07_human MAPK7, Q13164 (Q13164 whole entry, looked up): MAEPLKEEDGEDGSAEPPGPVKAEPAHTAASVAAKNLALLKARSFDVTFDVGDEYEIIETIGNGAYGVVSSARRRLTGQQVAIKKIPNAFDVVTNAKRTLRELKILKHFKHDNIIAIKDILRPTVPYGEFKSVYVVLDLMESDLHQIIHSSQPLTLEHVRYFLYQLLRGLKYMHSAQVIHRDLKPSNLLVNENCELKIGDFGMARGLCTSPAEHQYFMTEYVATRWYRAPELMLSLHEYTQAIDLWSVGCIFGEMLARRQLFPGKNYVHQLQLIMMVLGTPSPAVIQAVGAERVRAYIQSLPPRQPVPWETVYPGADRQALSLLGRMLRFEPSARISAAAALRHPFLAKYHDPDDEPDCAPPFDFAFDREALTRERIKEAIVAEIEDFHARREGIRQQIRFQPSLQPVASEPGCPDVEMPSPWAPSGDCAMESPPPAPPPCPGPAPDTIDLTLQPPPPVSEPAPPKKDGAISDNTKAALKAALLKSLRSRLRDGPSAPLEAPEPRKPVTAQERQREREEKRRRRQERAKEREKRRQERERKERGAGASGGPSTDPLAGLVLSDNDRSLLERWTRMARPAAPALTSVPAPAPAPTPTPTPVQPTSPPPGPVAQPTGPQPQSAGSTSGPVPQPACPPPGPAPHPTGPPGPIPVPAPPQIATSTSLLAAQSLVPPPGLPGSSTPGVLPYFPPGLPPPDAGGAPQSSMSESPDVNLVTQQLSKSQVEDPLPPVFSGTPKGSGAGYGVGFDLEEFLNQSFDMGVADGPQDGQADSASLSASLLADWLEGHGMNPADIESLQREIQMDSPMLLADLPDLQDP

Variant | effect of a mutation on the interaction
R361H | with no effect

Variants of: B1
Conditions: with mcl1_human MCL1, Q07820

Variant | effect of a mutation on the interaction
R361H | with no effect

Variants of: B1
Conditions: with myc_human MYC

Variant | effect of a mutation on the interaction
R361H | with no effect

Variants of: B1
Conditions: with nf1_human NF1, P21359

Variant | effect of a mutation on the interaction
R361H | with no effect

Variants of: B1
Conditions: with merl_human NF2, P35240

Variant | effect of a mutation on the interaction
R361H | with no effect

Variants of: B1
Conditions: with nfic_human NFIC

Variant | effect of a mutation on the interaction
R361H | with no effect

Variants of: B1
Conditions: with nsd3_human NSD3, Q9BZ95
Sequence of nsd3_human NSD3, Q9BZ95 (Q9BZ95 whole entry): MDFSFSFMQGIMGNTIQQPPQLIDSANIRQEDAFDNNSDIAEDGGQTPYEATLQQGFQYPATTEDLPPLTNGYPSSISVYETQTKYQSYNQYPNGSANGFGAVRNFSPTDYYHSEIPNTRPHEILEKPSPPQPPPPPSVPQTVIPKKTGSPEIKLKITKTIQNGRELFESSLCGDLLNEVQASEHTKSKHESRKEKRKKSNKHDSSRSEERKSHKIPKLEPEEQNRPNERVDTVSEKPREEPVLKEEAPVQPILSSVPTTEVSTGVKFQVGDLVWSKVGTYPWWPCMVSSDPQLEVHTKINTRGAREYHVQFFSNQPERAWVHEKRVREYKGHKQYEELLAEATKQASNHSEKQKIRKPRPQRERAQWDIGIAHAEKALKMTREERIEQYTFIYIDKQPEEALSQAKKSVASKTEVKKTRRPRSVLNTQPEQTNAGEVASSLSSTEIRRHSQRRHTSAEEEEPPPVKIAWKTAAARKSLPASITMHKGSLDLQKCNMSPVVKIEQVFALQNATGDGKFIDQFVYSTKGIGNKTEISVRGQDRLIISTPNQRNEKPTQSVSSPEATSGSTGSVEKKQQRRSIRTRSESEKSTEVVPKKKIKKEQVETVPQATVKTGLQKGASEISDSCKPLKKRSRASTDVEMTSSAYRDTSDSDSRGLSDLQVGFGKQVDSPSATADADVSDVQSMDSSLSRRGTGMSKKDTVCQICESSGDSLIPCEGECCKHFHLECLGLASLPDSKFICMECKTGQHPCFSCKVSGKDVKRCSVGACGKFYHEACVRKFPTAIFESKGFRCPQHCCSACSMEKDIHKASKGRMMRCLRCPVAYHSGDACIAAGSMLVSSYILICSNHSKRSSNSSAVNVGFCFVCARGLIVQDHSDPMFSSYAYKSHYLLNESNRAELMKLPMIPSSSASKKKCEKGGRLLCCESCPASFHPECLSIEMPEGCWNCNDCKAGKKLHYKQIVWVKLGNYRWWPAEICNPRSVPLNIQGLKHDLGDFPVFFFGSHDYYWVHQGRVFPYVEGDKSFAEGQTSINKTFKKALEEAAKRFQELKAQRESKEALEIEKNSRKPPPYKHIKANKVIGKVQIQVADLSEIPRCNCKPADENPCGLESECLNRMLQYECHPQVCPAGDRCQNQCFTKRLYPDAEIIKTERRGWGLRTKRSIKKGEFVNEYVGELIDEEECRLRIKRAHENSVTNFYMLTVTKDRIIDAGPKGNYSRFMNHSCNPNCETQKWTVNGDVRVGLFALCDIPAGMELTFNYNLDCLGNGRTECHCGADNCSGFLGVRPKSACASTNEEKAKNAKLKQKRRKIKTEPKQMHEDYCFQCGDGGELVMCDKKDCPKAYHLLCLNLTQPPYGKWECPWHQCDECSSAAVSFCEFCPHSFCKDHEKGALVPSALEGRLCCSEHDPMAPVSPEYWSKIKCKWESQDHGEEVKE

Variant | effect of a mutation on the interaction
R361H | with no effect

Variants of: B1
Conditions: with pak3_human PAK3, O75914

Variant | effect of a mutation on the interaction
R361H | with no effect

Variants of: B1
Conditions: with pax5_human PAX5, Q02548

Variant | effect of a mutation on the interaction
R361H | with no effect

Variants of: B1
Conditions: with pax9_human PAX9, P55771
Sequence of pax9_human PAX9, P55771 (P55771 whole entry): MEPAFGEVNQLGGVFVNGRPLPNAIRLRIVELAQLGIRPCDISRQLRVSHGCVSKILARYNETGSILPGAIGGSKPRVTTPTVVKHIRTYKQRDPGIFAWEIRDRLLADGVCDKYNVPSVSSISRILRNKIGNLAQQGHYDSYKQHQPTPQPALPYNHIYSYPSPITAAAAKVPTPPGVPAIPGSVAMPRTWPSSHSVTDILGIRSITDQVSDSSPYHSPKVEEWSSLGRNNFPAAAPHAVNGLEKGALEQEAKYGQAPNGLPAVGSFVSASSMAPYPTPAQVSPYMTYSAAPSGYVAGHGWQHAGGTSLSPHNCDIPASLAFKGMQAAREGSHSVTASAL

Variant | effect of a mutation on the interaction
R361H | with no effect

Variants of: B1
Conditions: with pcbp1_human PCBP1, Q15365
Sequence of pcbp1_human PCBP1, Q15365 (Q15365 whole entry): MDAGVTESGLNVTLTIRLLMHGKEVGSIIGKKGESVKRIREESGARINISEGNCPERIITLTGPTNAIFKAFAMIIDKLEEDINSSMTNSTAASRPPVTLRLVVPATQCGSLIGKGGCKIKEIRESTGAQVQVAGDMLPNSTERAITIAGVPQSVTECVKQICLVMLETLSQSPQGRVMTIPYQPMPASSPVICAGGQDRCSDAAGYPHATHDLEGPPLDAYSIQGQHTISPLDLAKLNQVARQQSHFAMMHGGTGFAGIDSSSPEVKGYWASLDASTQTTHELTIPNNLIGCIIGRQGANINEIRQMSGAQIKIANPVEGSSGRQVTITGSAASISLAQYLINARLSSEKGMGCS

Variant | effect of a mutation on the interaction
R361H | with no effect

Variants of: B1
Conditions: with pgfra_human PDGFRA

Variant | effect of a mutation on the interaction
R361H | with no effect

Variants of: B1
Conditions: with pgfrb_human PDGFRB

Variant | effect of a mutation on the interaction
R361H | with no effect

Variants of: B1
Conditions: with pdk1_human PDK1, Q15118

Variant | effect of a mutation on the interaction
R361H | with no effect

Variants of: B1
Conditions: with PIK3C2B

Variant | effect of a mutation on the interaction
R361H | with no effect

Variants of: B1
Conditions: with pk3c3_human PIK3C3, Q8NEB9

Variant | effect of a mutation on the interaction
R361H | with no effect

Variants of: B1
Conditions: with pk3ca_human PIK3CA

Variant | effect of a mutation on the interaction
R361H | with no effect

Variants of: B1
Conditions: with pk3cg_human PIK3CG

Variant | effect of a mutation on the interaction
R361H | with no effect

Variants of: B1
Conditions: with p85a_human PIK3R1, P27986
Sequence of p85a_human PIK3R1, P27986 (P27986 whole entry): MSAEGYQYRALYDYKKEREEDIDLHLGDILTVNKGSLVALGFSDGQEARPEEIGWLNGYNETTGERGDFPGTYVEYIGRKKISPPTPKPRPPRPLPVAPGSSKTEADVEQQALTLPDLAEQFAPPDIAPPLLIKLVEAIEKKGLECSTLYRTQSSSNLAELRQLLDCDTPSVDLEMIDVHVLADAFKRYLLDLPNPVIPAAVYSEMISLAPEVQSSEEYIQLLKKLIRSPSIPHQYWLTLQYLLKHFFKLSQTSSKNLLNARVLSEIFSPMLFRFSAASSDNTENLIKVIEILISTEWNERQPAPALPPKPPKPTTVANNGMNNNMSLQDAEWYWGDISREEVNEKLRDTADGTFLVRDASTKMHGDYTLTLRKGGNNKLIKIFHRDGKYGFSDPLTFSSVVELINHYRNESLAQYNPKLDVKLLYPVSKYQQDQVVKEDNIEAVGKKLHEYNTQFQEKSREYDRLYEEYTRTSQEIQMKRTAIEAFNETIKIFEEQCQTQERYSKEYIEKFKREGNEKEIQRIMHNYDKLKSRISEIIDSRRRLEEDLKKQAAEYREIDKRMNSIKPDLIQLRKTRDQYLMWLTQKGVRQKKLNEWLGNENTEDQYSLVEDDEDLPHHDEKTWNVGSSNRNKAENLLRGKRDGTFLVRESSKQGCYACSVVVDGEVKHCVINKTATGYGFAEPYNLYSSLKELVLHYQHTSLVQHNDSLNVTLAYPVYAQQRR

Variant | effect of a mutation on the interaction
R361H | with no effect

Variants of: B1
Conditions: with p85b_human PIK3R2, O00459

Variant | effect of a mutation on the interaction
R361H | with no effect

Variants of: B1
Conditions: with dpod1_human POLD1, P28340

Variant | effect of a mutation on the interaction
R361H | with no effect

Variants of: B1
Conditions: with dpoe1_human POLE

Variant | effect of a mutation on the interaction
R361H | with no effect

Variants of: B1
Conditions: with lipa1_human PPFIA1, Q13136

Variant | effect of a mutation on the interaction
R361H | with no effect

Variants of: B1
Conditions: with 2aaa_human PPP2R1A

Variant | effect of a mutation on the interaction
R361H | with no effect

Variants of: B1
Conditions: with prdm1_human PRDM1, O75626

Variant | effect of a mutation on the interaction
R361H | with no effect

Variants of: B1
Conditions: with aapk2_human PRKAA2, P54646

Variant | effect of a mutation on the interaction
R361H | with no effect

Variants of: B1
Conditions: with prss8_human PRSS8, Q16651

Variant | effect of a mutation on the interaction
R361H | with no effect

Variants of: B1
Conditions: with ptk6_human PTK6, Q13882

Variant | effect of a mutation on the interaction
R361H | with no effect

Variants of: B1
Conditions: with tf65_human RELA

Variant | effect of a mutation on the interaction
R361H | with no effect

Variants of: B1
Conditions: with rnf43_human RNF43, Q68DV7

Variant | effect of a mutation on the interaction
R361H | with no effect

Variants of: B1
Conditions: with ros1_human ROS1, P08922

Variant | effect of a mutation on the interaction
R361H | with no effect

Variants of: B1
Conditions: with rl5_human RPL5, P46777

Variant | effect of a mutation on the interaction
R361H | with no effect

Variants of: B1
Conditions: with runx1_human RUNX1, Q01196

Variant | effect of a mutation on the interaction
R361H | with no effect

Source: IntAct's records for PubMed 35512704
